Test results taken from US20030133912A1 (published 2003).

Key:
[1] = target: T1, Human coxsackie-adenovirus receptor (CAR) expressed on CHO cells (human, UniProt P78310 20-365)
T1 sequence: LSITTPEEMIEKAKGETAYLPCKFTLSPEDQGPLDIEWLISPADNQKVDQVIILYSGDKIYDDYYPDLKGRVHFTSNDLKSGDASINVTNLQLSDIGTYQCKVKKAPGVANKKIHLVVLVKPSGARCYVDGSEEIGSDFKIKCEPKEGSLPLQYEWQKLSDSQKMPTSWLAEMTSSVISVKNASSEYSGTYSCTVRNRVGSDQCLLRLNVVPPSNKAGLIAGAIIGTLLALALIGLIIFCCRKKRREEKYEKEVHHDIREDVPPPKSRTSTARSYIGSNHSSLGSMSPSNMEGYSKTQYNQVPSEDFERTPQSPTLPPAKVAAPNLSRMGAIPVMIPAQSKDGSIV

[2] = target: T2, Soluble human transferrin receptor, purified extracellular domain (human, UniProt P02786 89-760); assay: pull-down of fiber lysate with soluble hTfR on anti-hTfR antibody 128.1 beads, Western blot with 4D2.5
T2 construct: extracellular domain; Gift material; also called hTfR; soluble hTfR

[3] = target: T1, Human coxsackie-adenovirus receptor …; assay: 3H-labelled virus binding to CHO cells with or without hCAR, 1 h on ice
[4] = target: T2, Soluble human transferrin receptor, …; assay: phage display panning on immobilised hTfR extracellular domain, three rounds
Description: Enzyme-linked immunosorbent assay (ELISA) plates were coated with soluble hTfR, and bound phage were eluted by a low-pH buffer. Eluted phage were amplified in E. coli K91 and subsequently screened again for binding to the immobilized hTfR. In separate experiments, bound phage were eluted with purified transferrin holoenzyme. Three rounds of screening-amplification were done for each type of elution.
Phage screening. Ten microliters of amplified nonapeptide phage library (a generous gift from Al Jesaitis, Montana State University) was screened against the purified extracellular domain of hTfR (kindly provided by Martin Lawrence, Harvard University) coated on 96-well microtiter plates in 100 μl of 0.05 M carbonate buffer (pH 9.6). In the first panning, hTfR was coated at 100 μg/ml. Subsequent pannings were done with decreasing concentrations of hTfR for increased stringency (10 and 1 μg/ml for the second and third pannings, respectively). Bound phage were eluted with low-acid buffer (0.1 M glycine, pH 2.2) or ligand (iron-loaded human transferrin; Sigma-Aldrich) in TBS buffer (50 mM Tris-Cl, pH 7.5; 150 mM NaCl). After three successive rounds of panning and amplification, clones were picked and sequenced as described elsewhere.

T2 sequence (P02786 89-760): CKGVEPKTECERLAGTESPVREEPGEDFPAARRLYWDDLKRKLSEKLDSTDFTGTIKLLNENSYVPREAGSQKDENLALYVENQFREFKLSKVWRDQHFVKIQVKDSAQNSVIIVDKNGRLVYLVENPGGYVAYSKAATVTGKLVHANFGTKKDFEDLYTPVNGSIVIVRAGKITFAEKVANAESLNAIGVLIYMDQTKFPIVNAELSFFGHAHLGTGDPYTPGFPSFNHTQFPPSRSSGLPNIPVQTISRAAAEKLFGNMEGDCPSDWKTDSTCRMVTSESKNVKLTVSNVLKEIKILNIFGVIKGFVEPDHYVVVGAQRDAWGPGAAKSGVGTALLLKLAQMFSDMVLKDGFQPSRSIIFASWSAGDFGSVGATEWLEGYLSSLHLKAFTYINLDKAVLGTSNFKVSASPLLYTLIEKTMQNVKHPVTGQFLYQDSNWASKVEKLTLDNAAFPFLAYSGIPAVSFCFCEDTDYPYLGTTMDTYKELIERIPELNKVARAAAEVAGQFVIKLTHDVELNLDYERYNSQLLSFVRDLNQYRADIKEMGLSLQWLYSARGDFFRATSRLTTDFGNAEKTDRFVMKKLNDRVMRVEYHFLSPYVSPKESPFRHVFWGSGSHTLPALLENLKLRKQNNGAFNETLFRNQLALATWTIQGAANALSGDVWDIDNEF

| Binder | binding result [3] | binding result [4] | also measured |
| --- | --- | --- | --- |
| Adenovirus type 5 (Ad5) fiber, wild type (other, also called Ad5GFP; Ad5RSVeGFP) MKRARPSEDTFNPVYPYDTETGPPTVPFLTPPFVSPNGFQESPPGVLSLRLSEPLVTSNGMLALKMGNGLSLDEAGNLTSQNVTTVSPPLKKTKSNINLEISAPLTVTSEALTVAAAAPLMVAGNTLTMQSQAPLTVHDSKLSIATQGPLTVSEGKLALQTSGPLTTTDSSTLTITASPPLTTATGSLGIDLKEPIYTQNGKLGLKYGAPLHVTDDLNTLTVATGPGVTINNTSLQTKVTGALGFDSQGNMQLNVAGGLRIDSQNRRLILDVSYPFDAQNQLNLRLGQGPLFINSAHNLDINYNKGLYLFTASNNSKKLEVNLSTAKGLMFDATAIAINAGDGLEFGSPNAPNTNPLKTKIGHGLEFDSNKAMVPKLGTGLSFDSTGAITVGNKNNDKLTIWTTPAPSPNCRLNAEKDAKLTLVLTKCGSQILATVSVLAVKGSLAPISGTVQSAHLIIRFDENGVLLNNSFLDPEYWNFRNGDLTEGTAYTNAVGFMPNLSAYPKSHGKTAKSNIVSQVYLNGDKTKPVTLTITLNGTQETGDTTPSAYSMSFSWDWSGHNYINEIFATSSYTFSYIAQE |  |  | fold increase in bound particles with CAR expression [1]: 3.6 fold; binding result [2]: no binding |
| Chimeric Ad5/30 fiber (Ad5 tail, Ad30 shaft and knob) on virus Ad5GFPf30 (other, also called Ad5RSVeGFPf30; AdGFPf30) MKRARPSEDTFNPVYPYDTETGPPTVPFLTPPFVSPNGFQESPPGVLSLKLADPIAITNGDVSLKVGGGLTVEQDSGNLSVNPKAPLQVGTDKKLELALAPPFDVRDNKLAILVGDGLKVIDRSISDLPGLLNYLVVLTGKGIGNEELKNDDGSNKGVGLCVRIGEGGGLTFDDKGYLVAWNNKHDIRTIWTTLDPSPNCKIDIEKDSKLTLVLTKCGSQILANVSLIIVNGKFKILNNKTDPSLPKSFNIKLLFDQNGVLLENSNIEKQYLNFRSGDSILPEPYKNAIGFMPNLLAYAKATTDQSKIYARNTIYGNIYLDNQPYNPVVIKITFNNEADSAYSITFNYSWTKDYDNIPFDSTSFTFSYIAQE | no binding |  |  |
| GKGPKWMR [Phage displaying peptide GKGPKWMR] |  | binds |  |
| KWKLHGHIK [Phage displaying peptide KWKLHGHIK] |  | binds |  |
| Adenovirus type 30 (Ad30) fiber on wild-type Ad30 virus (other, Tested as 3H-labelled wild-type Ad30 virions; also called Ad30 wildtype; Ad30 (VR-273)) MSKRLRVEDDFNPVYPYGYARNQNIPFLTPPFVSSDGFKNFPPGVLSLKLADPIAITNGDVSLKVGGGLTVEQDSGNLSVNPKAPLQVGTDKKLELALAPPFDVRDNKLAILVGDGLKVIDRSISDLPGLLNYLVVLTGKGIGNEELKNDDGSNKGVGLCVRIGEGGGLTFDDKGYLVAWNNKHDIRTIWTTLDPSPNCKIDIEKDSKLTLVLTKCGSQILANVSLIIVNGKFKILNNKTDPSLPKSFNIKLLFDQNGVLLENSNIEKQYLNFRSGDSILPEPYKNAIGFMPNLLAYAKATTDQSKIYARNTIYGNIYLDNQPYNPVVIKITFNNEADSAYSITFNYSWTKDYDNIPFDSTSFTFSYIAQE | no binding |  |  |
| AIAKKHKWN [Phage displaying peptide AIAKKHKWN] |  | binds |  |
